Here are results for 1 molecule from publication PMC8980211 (2022).

This assay addresses SARS-CoV-2 RBD protein (immobilised in SPR) (SARS-CoV-2, UniProt P0DTC2 319-541). Kind of assay: SPR.

B1: mAb 35B5 (antibody, V domains shown)
VH: QVQLLESGGGLVQPGRSLRLSCAASGFTFDDYAMHWVRQAPGKGLEWVSGVSWNSGTIGYADSVKGRFTISRDNAKNSLYLHMRSLRAEDTALYYCAKAVEMVRGLMGLGADPEYGMDVWGQGTTVTVSS
VL: not shown
In turn, B1 gave a koff of 5.49e-06 s⁻¹.
